In patent US20240366776A1 (Hoffmann-La Roche, published 2024):

Key:
[1] = biological target: PD-1 (human, UniProt Q15116 25-167, limits assumed); test: HTRF
[2] = biological target: T1, human IL-2 (human, UniProt P60568 21-153, biotin-labeled in the IL2RB blocking assay); test: HTRF
T1 construct: also called biotin-labeled IL-2 (Acro Biosystems IL2-H82E4)

[3] = biological target: T1, human IL-2; test: HTRF IL-2:IL2RB
[4] = biological target: PD-1-Fc (UniProt Q15116 25-167, limits assumed); test: cell-based or functional assay
PD-1-Fc, sequence (Q15116 25-167 limits assumed): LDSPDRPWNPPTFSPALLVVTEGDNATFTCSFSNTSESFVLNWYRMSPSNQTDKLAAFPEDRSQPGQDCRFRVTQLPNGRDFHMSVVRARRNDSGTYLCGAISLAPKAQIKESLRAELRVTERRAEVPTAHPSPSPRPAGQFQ

PD-1, sequence (Q15116 25-167 limits assumed): as above
T1 sequence (P60568 21-153 limits assumed): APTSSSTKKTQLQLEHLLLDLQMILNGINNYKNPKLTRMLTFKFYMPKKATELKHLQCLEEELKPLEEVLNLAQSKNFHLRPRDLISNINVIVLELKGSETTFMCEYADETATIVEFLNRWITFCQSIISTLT

Binder | PD1 Binding [1] | IL2 Binding [2] | IL2RB Blocking [3] | IL-2 activity EC50, HEK-Blue IL-2 reporter cells, IgG1 coated wells (control) [4] [nM] | IL-2 activity EC50, HEK-Blue IL-2 reporter cells, PD-1 coated wells [4] [nM]
AF4387 (other) heavy 1: APTSSSTKKTQLQLEHLLLDLQMILNGINNYKNPKLTDMLTFEFYMPKKATELKHLQCLERELKPLEEVLNLAQSKNFHLRPRDLISNINVIVLELKGSETTFMCEYADETATIVEFLNRWITFCQSIISTLTGGGGSGGGGSGGGGSGGGGSQVQLVQSGAEVKKPGASVKVSCKASGYTFTDYYMHWVRQAPGQGLEWMGIINPRAGYTSYALKFQGRVTMTRDTSTSTVYMELSSLRSEDTAVYYCTSGWDVWGQGTLVTVSSAKTTAPSVYPLAPVCGDTTGSSVTLGCLVKGYFPEPVTLTWNSGSLSSGVHTFPAVLQSDLYTLSSSVTVTSSTWPSQSITCNVAHPASSTKVDKKIEPRGPTIKPCPPCKCPAPNAAGGPSVFIFPPKIKDVLMISLSPIVTCVVVDVSEDDPDVQISWFVNNVEVHTAQTQTHREDYNSTLRVVSALPIQHQDWMSGKEFKCKVNNKDLGAPIERTISKPKGSVRAPQVYVLPPPEEEMTKKQVTLTCMVTDFMPEDIYVEWTNNGKTELNYKNTEPVLDSDGSYFMYSDLRVEKKNWVERNSYSCSVVHEGLHNHHTTESFSRTPGK heavy 2: QVQLVQSGAEVKKPGASVKVSCKASGYTFTDYYMHWVRQAPGQGLEWMGIINPRAGYTSYALKFQGRVTMTRDTSTSTVYMELSSLRSEDTAVYYCTSGWDVWGQGTLVTVSSAKTTAPSVYPLAPVCGDTTGSSVTLGCLVKGYFPEPVTLTWNSGSLSSGVHTFPAVLQSDLYTLSSSVTVTSSTWPSQSITCNVAHPASSTKVDKKIEPRGPTIKPCPPCKCPAPNAAGGPSVFIFPPKIKDVLMISLSPIVTCVVVDVSEDDPDVQISWFVNNVEVHTAQTQTHREDYNSTLRVVSALPIQHQDWMSGKEFKCKVNNKDLGAPIERTISKPKGSVRAPQVYVLPPPEKEMTKKQVSLTCLVKDFMPEDIYVEWTNNGKTELNYKNTEPVLKSDGSYFMYSKLTVEKKNWVERNSYSCSVVHEGLHNHHTTKSFSRTPGGGGSGGGSHHHHHH light: DIQMTQSPSSLSASVGDRVTITCRASQSISTWLAWYQQKPGKAPKLLIYAASSLDSGVPSRFSGSGSGTDFTLTISSLQPEDFATYYCQQSYSFPVTFGQGTKVEIKRADAAPTVSIFPPSSEQLTSGGASVVCFLNNFYPKDINVKWKIDGSERQNGVLNSWTDQDSKDSTYSMSSTLTLTKDEYERHNSYTCEATHKTSTSPIVKSFNRNEC | – | – | – | 0.419 | 0.057
AF4386 (other) heavy 1: APTSSSTKKTQLQLEHLLLDLQMILNGINNYKNPKLTDMLTFEFYMPKKATELKHLQCLERELKPLEEVLNLAQSKNFHLRPRDLISNINVIVLELKGSETTFMCEYADETATIVEFLNRWITFCQSIISTLTGGGGSGGGGSGGGGSGGGGSQVQLVQSGAEVKKPGASVKVSCKASGDTFTRYYVHWVRQAPGQGLEWMGIINPSGGYASYAQKFQGRVTMTRDTSTSTVYMELSSLRSEDTAVYYCAAGLFIWGQGTLVTVSSAKTTAPSVYPLAPVCGDTTGSSVTLGCLVKGYFPEPVTLTWNSGSLSSGVHTFPAVLQSDLYTLSSSVTVTSSTWPSQSITCNVAHPASSTKVDKKIEPRGPTIKPCPPCKCPAPNAAGGPSVFIFPPKIKDVLMISLSPIVTCVVVDVSEDDPDVQISWFVNNVEVHTAQTQTHREDYNSTLRVVSALPIQHQDWMSGKEFKCKVNNKDLGAPIERTISKPKGSVRAPQVYVLPPPEEEMTKKQVTLTCMVTDFMPEDIYVEWTNNGKTELNYKNTEPVLDSDGSYFMYSDLRVEKKNWVERNSYSCSVVHEGLHNHHTTESFSRTPGK heavy 2: QVQLVQSGAEVKKPGASVKVSCKASGDTFTRYYVHWVRQAPGQGLEWMGIINPSGGYASYAQKFQGRVTMTRDTSTSTVYMELSSLRSEDTAVYYCAAGLFIWGQGTLVTVSSAKTTAPSVYPLAPVCGDTTGSSVTLGCLVKGYFPEPVTLTWNSGSLSSGVHTFPAVLQSDLYTLSSSVTVTSSTWPSQSITCNVAHPASSTKVDKKIEPRGPTIKPCPPCKCPAPNAAGGPSVFIFPPKIKDVLMISLSPIVTCVVVDVSEDDPDVQISWFVNNVEVHTAQTQTHREDYNSTLRVVSALPIQHQDWMSGKEFKCKVNNKDLGAPIERTISKPKGSVRAPQVYVLPPPEKEMTKKQVSLTCLVKDFMPEDIYVEWTNNGKTELNYKNTEPVLKSDGSYFMYSKLTVEKKNWVERNSYSCSVVHEGLHNHHTTKSFSRTPGGGGSGGGSHHHHHH light: DIQMTQSPSSLSASVGDRVTITCRASQSIGRYLAWYQQKPGKAPKLLIYSASNLETGVPSRFSGSGSGTDFTLTISSLQPEDFATYYCQQYNSFPVTFGPGTKVDIKRADAAPTVSIFPPSSEQLTSGGASVVCFLNNFYPKDINVKWKIDGSERQNGVLNSWTDQDSKDSTYSMSSTLTLTKDEYERHNSYTCEATHKTSTSPIVKSFNRNEC | – | – | – | 1.79 | 0.05
AF4389 (other) heavy 1: APTSSSTKKTQLQLEHLLLDLQMILNGINNYKNPKLTDMLTFEFYMPKKATELKHLQCLERELKPLEEVLNLAQSKNFHLRPRDLISNINVIVLELKGSETTFMCEYADETATIVEFLNRWITFCQSIISTLTGGGGSGGGGSGGGGSGGGGSQVQLVQSGAEVKKPGASVKVSCKASGHTFTRYYMHWVRQAPGQGLEWMGIINPSGGYATYAQKFQGRVTMTRDTSTSTVYMELSSLRSEDTAVYYCASGLFIWGQGTLVTVSSAKTTAPSVYPLAPVCGDTTGSSVTLGCLVKGYFPEPVTLTWNSGSLSSGVHTFPAVLQSDLYTLSSSVTVTSSTWPSQSITCNVAHPASSTKVDKKIEPRGPTIKPCPPCKCPAPNAAGGPSVFIFPPKIKDVLMISLSPIVTCVVVDVSEDDPDVQISWFVNNVEVHTAQTQTHREDYNSTLRVVSALPIQHQDWMSGKEFKCKVNNKDLGAPIERTISKPKGSVRAPQVYVLPPPEEEMTKKQVTLTCMVTDFMPEDIYVEWTNNGKTELNYKNTEPVLDSDGSYFMYSDLRVEKKNWVERNSYSCSVVHEGLHNHHTTESFSRTPGK heavy 2: QVQLVQSGAEVKKPGASVKVSCKASGHTFTRYYMHWVRQAPGQGLEWMGIINPSGGYATYAQKFQGRVTMTRDTSTSTVYMELSSLRSEDTAVYYCASGLFIWGQGTLVTVSSAKTTAPSVYPLAPVCGDTTGSSVTLGCLVKGYFPEPVTLTWNSGSLSSGVHTFPAVLQSDLYTLSSSVTVTSSTWPSQSITCNVAHPASSTKVDKKIEPRGPTIKPCPPCKCPAPNAAGGPSVFIFPPKIKDVLMISLSPIVTCVVVDVSEDDPDVQISWFVNNVEVHTAQTQTHREDYNSTLRVVSALPIQHQDWMSGKEFKCKVNNKDLGAPIERTISKPKGSVRAPQVYVLPPPEKEMTKKQVSLTCLVKDFMPEDIYVEWTNNGKTELNYKNTEPVLKSDGSYFMYSKLTVEKKNWVERNSYSCSVVHEGLHNHHTTKSFSRTPGGGGSGGGSHHHHHH light: DIQMTQSPSSLSASVGDRVTITCRASQSINSWLAWYQQKPGKAPKLLIYATSTLESGVPSRFSGSGSGTDFTLTISSLQPEDFATYYCQQYYRFPVTFGQGTKVEIKRADAAPTVSIFPPSSEQLTSGGASVVCFLNNFYPKDINVKWKIDGSERQNGVLNSWTDQDSKDSTYSMSSTLTLTKDEYERHNSYTCEATHKTSTSPIVKSFNRNEC | – | – | – | 1.67 | 0.118
PD1-IL2-R02-A08 (scFv, V domains shown, cf) VH: QVQLVQSGAEVKKPGASVKVSCKVSGYTFTSYDINWVRQAPGQGLEWMGWINPNSGDTGYAQKFQGRVTMTRDTSTSTVYMELSSLRSEDTAVYYCARDTGLGYYYGSGDFDYWGQGTLVTVSS VL: DIQMTQSPSSLSASVGDRVTITCQASQDIHNYLNWYQQKPGKAPKLLIYDVSNLETGVPSRFSGSGSGTDFTLTISSLQPEDFATYYCQQAISFPLTFGGGTKVEIK | 995 | 520 | 1610 | – | –

Further lines, results first:

PD1 Binding [1] | IL2 Binding [2] | IL2RB Blocking [3] | IL-2 activity EC50, HEK-Blue IL-2 reporter cells, IgG1 coated wells (control) [4] [nM] | IL-2 activity EC50, HEK-Blue IL-2 reporter cells, PD-1 coated wells [4] [nM] | Binder
653 | 19 | 1730 | – | – | PD1-R07-A05 (scFv) scFv: QVQLVQSGAEVKKPGASVKVSCKASGYTFTTYYVHWVRQAPGQGLEWMGIINPSGGSTSYAQNFQGRVTMTRDTSTSTVYMELSSLRSEDTAVYYCASGWDVWGQGTTVTVSSASGGGGSGGGGSGGGGSHASEIVMTQSPATLSVSPGERATLSCRASQSVNTYLAWYQQKPGQAPRLLIYGASTRATGIPARFSGSGSGTEFTLTISSLQSEDFAVYYCQQYGSSPVTFGQGTRLEIK
1620 | 1560 | 1780 | – | – | PD1-IL2-R02-A11 (scFv, V domains shown, cf) VH: QVQLVQSGAEVKKPGASVKVSCKASGHTFTRYYMHWVRQAPGQGLEWMGIINPSGGYATYAQKFQGRVTMTRDTSTSTVYMELSSLRSEDTAVYYCASGWDVWGQGTLVTVSS VL: DIQMTQSPSSLSASVGDRVTITCRASQSINSWLAWYQQKPGKAPKLLIYATSTLESGVPSRFSGSGSGTDFTLTISSLQPEDFATYYCQQSYSFPPTFGQGTKVEIK
1240 | 2040 | 910 | – | – | PD1-IL2-R07-A09 (SEQ ID NO: 34) (scFv, V5-tagged in the assay) scFv: QVQLVQSGAEVKKPGASVKVSCKASGYTFTSYYMHWVRQAPGQGLEWMGIINPSDGSTTYAQSFQGRVTMTRDTSTSTVYMELSSLRSEDTAVYYCASGWDVWGQGTLVTVSSASGGGGSGGGGSGGGGSHASDIVMTQSPDSLAVSLGERATINCKSSQSVFSSANNKNYLAWYQQKPGQPPKLLIYWASTRESGVPDRFSGSGSGTDFTLTISSLQAEDVAVYYCQQYFGTPVTFGGGTKVEIK
730 | 973 | 1610 | – | – | PD1-IL2-R07-A04 (scFv) QVQLVQSGAEVKKPGASVKVSCKASGYTFTDYYMHWVRQAPGQGLEWMGIINPRAGYTSYALKFQGRVTMTRDTSTSTVYMELSSLRSEDTAVYYCTSGMDVWGQGTLVTVSSASGGGGSGGGGSGGGGSHASDIQMTQSPSSLSASVGDRVTITCRASQSISTWLAWYQQKPGKAPKLLIYAASSLQSGVPSRFSGSGSGTDFTLTISSLQPEDFATYYCQQSYSFPVTFGQGTKVEIK
50 | 247 | 1110 | – | – | PD1-IL2-R06-E04 (SEQ ID NO: 33) (scFv, V5-tagged in the assay) scFv: QVQLVQSGAEVKKPGASVKVSCKASGYTFTRYYIHWVRQAPGQGLEWMGWINAYNGDTNYAQKLQGRVTMTRDTSTSTVYMELSSLRSEDTAVYYCARDSYYYDSFDYWGQGTLVTVSSASGGGGSGGGGSGGGGSHASDIQMTQSPSSLSASVGDRVTITCRASQTITDWLAWYQQKPGKAPKLLIYGASNLQGGVPSRFSGSGSGTDFTLTISSLQPEDFATYYCQQYYSSWTFGQGTKVEIK
